Experimental findings from the supplement of paper PMC10724198 are described below.

± gives the standard deviation of the averaged measurements.

The series deals with Saccharomyces cerevisiae. As to the kind of experiment: protein stability index of tFT-peptide fusion (C-terminal peptide) (PSI (0-1 scale)); higher = more stable (slower turnover). Conditions: temperature: 30 C. The method, then:
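MPS profiling in S. cerevisiae of the yeast C-terminome library: the last 12 aa of each annotated ORF are fused to the C-terminus of a sfGFP-mCherry timer, after a GGGS linker. Cells are FACS-sorted into 8 mCherry/sfGFP bins and deep-sequenced. PSI runs from 0 (unstable) to 1 (stable); wild type and das1Δ backgrounds, two technical replicates each.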

The mark [1] stands for this setting: genetic background: das1 deletion.

In turn, VKKLLEIRSKSS [GTT2 C-terminal 12 aa] returned a protein stability index under setting [1] of 0.681 ± 0.0073 and a protein stability index (genetic background: wild type) of 0.369 ± 0.0065.

In turn, VKKLVTDMLAKI [CFT2 C-terminal 12 aa] came in with a protein stability index under setting [1] of 0.6957 ± 0.00094 and a protein stability index (genetic background: wild type) of 0.669 ± 0.029.

Consider VLSFNPKVWLLV [YAR068W C-terminal 12 aa], for which the protein stability index is 0.562 ± 0.0081 under setting [1] and 0.0978 ± 0.0096 (genetic background: wild type).

The sequence VNGELKYVKPED [AFT1 C-terminal 12 aa] displayed a protein stability index under setting [1] of 0.6945 ± 0.0046 and a protein stability index (genetic background: wild type) of 0.6909 ± 0.0017.

VPGNPGVVFQNI [CDC60 C-terminal 12 aa]: the protein stability index is, setting by setting: under setting [1], 0.708 ± 0.018; (genetic background: wild type) 0.75 ± 0.082.

With VQSTDIAAMQKL [EFB1 C-terminal 12 aa], the protein stability index is, setting by setting: under setting [1], 0.721 ± 0.014; (genetic background: wild type) 0.683 ± 0.035.

On to VRKLSFHVYEDE [ACM1 C-terminal 12 aa], for which the protein stability index reads like this: under setting [1], 0.6908 ± 0.001; (genetic background: wild type) 0.658 ± 0.0079.

With VSKMDCDPLTVA [NIF3 C-terminal 12 aa], the protein stability index is, setting by setting: under setting [1], 0.678 ± 0.027; (genetic background: wild type) 0.676 ± 0.025.

For “VTFLVFANLRLW [YBR223W-A C-terminal 12 aa]”, the protein stability index came out at 0.566 ± 0.013 under setting [1] and 0.575 ± 0.027 (genetic background: wild type).

As for VVCFVSYQKLSS [OPI9 C-terminal 12 aa], the protein stability index reads like this: under setting [1], 0.635 ± 0.011; (genetic background: wild type) 0.168 ± 0.026.

Consider VVEALRDAVGDV [NBP35 C-terminal 12 aa], for which the protein stability index was found to be 0.706 ± 0.014 under setting [1] and 0.696 ± 0.02 (genetic background: wild type).

For VVVVPSVVETRK [SSO2 C-terminal 12 aa], the protein stability index came out at 0.681 ± 0.031 under setting [1] and 0.668 ± 0.026 (genetic background: wild type).

Sequence VWADILNKLGKD [ADK1 C-terminal 12 aa] had a protein stability index under setting [1] of 0.704 ± 0.013 and a protein stability index (genetic background: wild type) of 0.719 ± 0.025.

Take VYALSIKRSKLT [EPT1 C-terminal 12 aa]: the protein stability index amounted to 0.6803 ± 0.0053 under setting [1] and 0.208 ± 0.0051 (genetic background: wild type).

On to VYELVDAEALFS [YDR131C C-terminal 12 aa], for which the protein stability index runs as follows: under setting [1], 0.745 ± 0.02; (genetic background: wild type) 0.682 ± 0.012.

In the case of WAVGGVELTTDI [GCN1 C-terminal 12 aa], the protein stability index by setting is: under setting [1], 0.76 ± 0.021; (genetic background: wild type) 0.705 ± 0.026.

For the sequence WDGNLFVWNGLG [PEX7 C-terminal 12 aa], the protein stability index amounted to 0.7335 ± 0.0029 under setting [1] and 0.4319 ± 0.0013 (genetic background: wild type).

Regarding WKKDNKIQVVKN [GIM4 C-terminal 12 aa], the protein stability index is, setting by setting: under setting [1], 0.725 ± 0.026; (genetic background: wild type) 0.663 ± 0.019.

With WPRVASNSGVVV [RPL23A C-terminal 12 aa], the protein stability index runs as follows: under setting [1], 0.7042 ± 0.0044; (genetic background: wild type) 0.679 ± 0.018.

With WTALVVNILGRF [CWH41 C-terminal 12 aa], the protein stability index stood at 0.634 ± 0.012 under setting [1] and 0.634 ± 0.011 (genetic background: wild type).

With YAELAERKKQEN [COX9 C-terminal 12 aa], the protein stability index was found to be 0.6916 ± 0.0031 under setting [1] and 0.6914 ± 0.0022 (genetic background: wild type).

As to YAGENFHHGDKL [ENO2 C-terminal 12 aa], the protein stability index was found to be 0.6954 ± 0.003 under setting [1] and 0.749 ± 0.034 (genetic background: wild type).

On to YCIYQILILVKH [YCL065W C-terminal 12 aa], for which the protein stability index was 0.149 ± 0.019 under setting [1] and 0.171 ± 0.013 (genetic background: wild type).

Take YDEDEGSDYDFI [SUP45 C-terminal 12 aa]: the protein stability index reads like this: under setting [1], 0.6992 ± 0.0034; (genetic background: wild type) 0.684 ± 0.012.

As to YDENSKPKGTKE [FUN30 C-terminal 12 aa], the protein stability index by setting is: under setting [1], 0.6948 ± 0.0051; (genetic background: wild type) 0.704 ± 0.016.

As for YEAKLSKRILRD [SCM3 C-terminal 12 aa], the protein stability index is, setting by setting: under setting [1], 0.7215 ± 0.0071; (genetic background: wild type) 0.723 ± 0.0073.

As for YFVNNIIVRIQS [YKL118W C-terminal 12 aa], the protein stability index runs as follows: under setting [1], 0.559 ± 0.009; (genetic background: wild type) 0.329 ± 0.028.

In turn, YGVPDAELKIVG [DGA1 C-terminal 12 aa] registered a protein stability index under setting [1] of 0.719 ± 0.02 and a protein stability index (genetic background: wild type) of 0.672 ± 0.019.

With YHLFYMKLQKKI [SPE2 C-terminal 12 aa], the protein stability index runs as follows: under setting [1], 0.6977 ± 0.0069; (genetic background: wild type) 0.187 ± 0.013.

As for YKELKDFIFAEK [GUK1 C-terminal 12 aa], the protein stability index by setting is: under setting [1], 0.692 ± 0.0077; (genetic background: wild type) 0.727 ± 0.035.

As to YKELVKKIESKN [CIT1 C-terminal 12 aa], the protein stability index runs as follows: under setting [1], 0.7257 ± 0.0054; (genetic background: wild type) 0.7078 ± 0.0025.

In turn, YNKLKGAGHKKE [PAI3 C-terminal 12 aa] had a protein stability index under setting [1] of 0.6777 ± 0.0045 and a protein stability index (genetic background: wild type) of 0.645 ± 0.0076.

Turning to YNLKNDILTNLE [SWI1 C-terminal 12 aa], the protein stability index was determined as 0.73 ± 0.021 under setting [1] and 0.651 ± 0.044 (genetic background: wild type).

With YVIVFFVYDSLL [YOL046C C-terminal 12 aa], the protein stability index came out at 0.238 ± 0.0075 under setting [1] and 0.283 ± 0.015 (genetic background: wild type).
